From patent publication US20200262894A1 (FRED HUTCHINSON CANCER RESEARCH CENTER, published 2020)
Non-standard residues stand in square brackets, D forms with d.

Columns and labels:
Experiment in all cases: flow cytometry, cytometric bead array with BSA-coupled peptides
[1] = biological target: T1, STII peptide H2N-CGNWSHPQFEKGC-OH, maleimide-coupled to BSA carrier protein (cysteine pairing not given here; also: maleimide-coupled to BSA carrier protein)
T1 construct: on a cytometric bead array as BSA conjugate
T1 peptide: H-CGNWSHPQFEKGC-OH

[2] = biological target: T2, STII peptide Ac-C(dPEG4)NWSHPQFEK-amide, maleimide-coupled to BSA carrier protein (also: maleimide-coupled to BSA carrier protein)
T2 construct: on a cytometric bead array as BSA conjugate
T2 peptide: Ac-C[dPEG4]NWSHPQFEK-NH2

[3] = biological target: T3, STII peptide H2N-CGNWSHPQFEK-amide, maleimide-coupled to BSA carrier protein (also: maleimide-coupled to BSA carrier protein)
T3 construct: on a cytometric bead array as BSA conjugate
T3 peptide: H-CGNWSHPQFEK-NH2

Measured: binding result

B1: anti-STII monoclonal antibody 4E2 (antibody, V domains shown)
VH: QVQLQQSGAELARPGASVKLSCTASGYTFTSYGITWVRQRTGQGLEWIGEIFPGSGDTSYGEKLKGQATLTTDKSSSTAYMQLSSLTSEDSAVYFCARRYRYIYHAMDYWGQGTSVTVSS
VL: DILMTQTPLSLPVSLGDQASISCRSSQSIVHSNGNTYLEWYLQKPGQSPKLLIYKVSNRFSGVPDRFSGSGSGTDFTLKISRVEAEDLGVYYCFQGSHVPLTFGAGTKLELK
notes: also called 4E2 mAb
binds: all assays above

B2: anti-STII monoclonal antibody 3E8 (antibody, V domains shown)
VH: EVQLVETGGGFVKPGGSLKLSCAASGFTFSSYGMSWVRQTPEKRLEWVAAITSDGGGTHYPDTVKGRFTISRDFAKNTLYLQMSSLRSEDTAWYFCARHEPRLIAWFAHWGQGTLVTVSA
VL: DVLMTQTPLSLPVSLGDQASISCRSSQSIVHSNGYTYLEWYLQKPGQSPKLLIYEVSNRFSGVPDRFSGSGSGTDFTLKIIRVEAEDLGVYYCFQGSHVPWTFGGGTKLEIK
notes: also called 3E8 mAb; STII-specific mAb 3E8
binds: all assays above

B3: anti-STII monoclonal antibody 5G2 (antibody, V domains shown)
VH: QVQLQQSGAELARPGASVKLSCTASGYTFTSYGITWVRQRTGQGLEWIGEIFPGSGDTSYGEKFKGQATLTTDKSSSTAYMQLSSLTSEDSAVYFCARRYRYIYHAMDYWGQGTSVTVSS
VL: DILMTQTPLSLPVSLGDQASISCRSSQSIVHSNGNTYLEWYLQKPGQSPKLLIYKVSNRFSGVPDRFSGSGSGTDFTLKIRRVEAEDLGVYYCFQGSHVPLTFGAGTKLELK
notes: also called 5G2 mAb; anti-STII 5G2 mAb
binds: all assays above
